Here are results for 6 molecules from publication PMC8568338 (Cell reports, 2021).

Data set [1] concerns the target T1, VP40-WT (Δ43, HIS-tagged), purified RNA-free monomer/dimer (UniProt Q05128 44-326). Description: 30 mM NaCl.
For data set [2], the target named is T1, VP40-WT (Δ43, HIS-tagged), purified …. Nature of the data set: blue native gel.
The target is the same in data set [3].
For data set [4] the target is unchanged. Nature of the data set: native MS.

Where two headings read alike, the source gives them in different places.

B1: HSP RNA (ssRNA)
RNA: UACAUUCCCAGCCUUUGUAGUGUUUUCGCCAAGCA
B1: in data set [1], the binding result is given as “binds”.

B2: A36 DNA (ssDNA)
DNA: AAAAAAAAAAAAAAAAAAAAAAAAAAAAAAAAAAAA
For B2, the binding result in data set [2] is on record as “no binding”.

B3: HSP18 DNA (ssDNA)
DNA: CAGCCTTTGTAGTGTTTT
As for B3, in data set [3], the binding result is reported as “binds”.

B4: AGGGG DNA (ssDNA)
DNA: AGGGG
Regarding B4, the binding result in data set [3] is “binds”.

B5: S2R DNA (ssDNA)
DNA: TAAAATAATTTTATTGAAT
For B5, in data set [4], the binding result is on record as “binds”.

B6: HSP DNA (ssDNA)
DNA: TACATTCCCAGCCTTTGTAGTGTTTTCGCCAAGCA
B6: the binding result in data set [3] was “binds”.
